# Data as given in patent publication US20070274915.
# Test system: AU-tagged PLC-γ1
# Sequence (P19174 2-1290): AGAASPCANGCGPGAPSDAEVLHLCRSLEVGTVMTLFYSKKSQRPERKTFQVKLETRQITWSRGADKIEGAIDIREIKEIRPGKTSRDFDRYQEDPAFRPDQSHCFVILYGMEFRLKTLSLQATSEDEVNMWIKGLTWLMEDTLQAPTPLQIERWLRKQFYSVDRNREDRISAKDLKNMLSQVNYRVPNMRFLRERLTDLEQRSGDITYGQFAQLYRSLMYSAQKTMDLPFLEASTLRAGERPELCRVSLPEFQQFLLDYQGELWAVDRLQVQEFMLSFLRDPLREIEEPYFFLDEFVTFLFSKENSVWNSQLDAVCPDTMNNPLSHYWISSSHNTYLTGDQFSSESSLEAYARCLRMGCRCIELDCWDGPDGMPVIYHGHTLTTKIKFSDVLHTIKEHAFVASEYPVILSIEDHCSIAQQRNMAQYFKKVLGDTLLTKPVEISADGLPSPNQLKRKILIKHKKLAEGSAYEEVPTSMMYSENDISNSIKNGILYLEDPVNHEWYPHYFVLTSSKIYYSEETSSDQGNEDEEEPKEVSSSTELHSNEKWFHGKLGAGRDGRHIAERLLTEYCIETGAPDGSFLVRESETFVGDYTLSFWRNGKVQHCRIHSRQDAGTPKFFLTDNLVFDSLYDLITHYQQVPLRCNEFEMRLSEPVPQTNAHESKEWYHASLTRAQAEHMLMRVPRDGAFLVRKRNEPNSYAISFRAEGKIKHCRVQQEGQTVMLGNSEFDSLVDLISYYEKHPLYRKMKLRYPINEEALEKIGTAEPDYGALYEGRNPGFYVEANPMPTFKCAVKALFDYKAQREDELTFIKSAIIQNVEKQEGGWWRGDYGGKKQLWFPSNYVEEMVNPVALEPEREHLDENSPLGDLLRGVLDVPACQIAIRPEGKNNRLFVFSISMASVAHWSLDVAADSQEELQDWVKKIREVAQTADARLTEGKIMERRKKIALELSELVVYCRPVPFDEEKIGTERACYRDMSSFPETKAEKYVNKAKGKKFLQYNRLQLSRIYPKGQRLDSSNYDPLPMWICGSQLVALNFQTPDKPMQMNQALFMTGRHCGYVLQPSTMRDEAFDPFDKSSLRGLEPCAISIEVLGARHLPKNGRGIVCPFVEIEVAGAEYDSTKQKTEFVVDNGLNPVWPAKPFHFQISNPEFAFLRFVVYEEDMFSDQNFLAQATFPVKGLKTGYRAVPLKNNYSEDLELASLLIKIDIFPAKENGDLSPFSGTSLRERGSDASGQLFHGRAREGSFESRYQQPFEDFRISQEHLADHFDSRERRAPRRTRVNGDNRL
# myc-tagged Itch, sequence (chain, as listed by the source): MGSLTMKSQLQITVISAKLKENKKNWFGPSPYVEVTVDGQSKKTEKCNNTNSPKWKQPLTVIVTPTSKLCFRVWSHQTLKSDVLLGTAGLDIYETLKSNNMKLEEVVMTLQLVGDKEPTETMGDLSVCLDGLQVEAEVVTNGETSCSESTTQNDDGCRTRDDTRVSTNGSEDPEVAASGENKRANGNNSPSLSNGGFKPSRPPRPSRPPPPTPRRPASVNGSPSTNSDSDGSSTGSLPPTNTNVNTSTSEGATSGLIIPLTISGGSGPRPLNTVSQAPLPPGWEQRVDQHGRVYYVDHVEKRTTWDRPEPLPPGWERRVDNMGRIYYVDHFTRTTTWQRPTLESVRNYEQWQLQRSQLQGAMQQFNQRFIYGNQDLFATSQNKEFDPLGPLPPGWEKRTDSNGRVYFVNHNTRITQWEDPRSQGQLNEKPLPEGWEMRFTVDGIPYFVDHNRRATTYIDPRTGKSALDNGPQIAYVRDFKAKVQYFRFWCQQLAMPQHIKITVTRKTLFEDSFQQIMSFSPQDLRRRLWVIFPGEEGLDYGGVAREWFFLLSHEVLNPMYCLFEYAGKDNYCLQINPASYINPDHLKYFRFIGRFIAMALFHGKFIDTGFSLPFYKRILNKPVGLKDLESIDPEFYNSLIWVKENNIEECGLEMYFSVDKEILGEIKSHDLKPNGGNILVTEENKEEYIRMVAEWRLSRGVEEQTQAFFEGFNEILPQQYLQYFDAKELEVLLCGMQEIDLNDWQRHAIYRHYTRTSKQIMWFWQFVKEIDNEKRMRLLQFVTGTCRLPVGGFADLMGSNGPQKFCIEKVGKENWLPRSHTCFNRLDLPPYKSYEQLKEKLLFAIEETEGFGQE
substance,measurement,value
myc-tagged Itch,"ionomycin-dependent degradation of PLC-γ1 (HEK 293 transfection, immunoblot)",Itch and Nedd4 both facilitated the ionomycin-dependent degradation of PLC-γ1
